Laboratory results from patent publication US11275076B2, “Systems and methods for assessing blood platelet function” (Medtronic, Inc., priority 2016, dated 2022).

Test system: fresh whole blood
Assay: drop distance cycle tests (ferromagnetic washer) assessing clot retraction in blood samples
Format: cell-based
Details: FIG. 4; for clot retraction (object drop distance over time): compared with fresh whole blood without platelet inhibitor, tests began after assumed clot initiation
From the text: Referring now to FIG. 3, a schematic drawing of a predicted trace 100 generated by successive drop distance test cycles of an object (e.g., the ferromagnetic object 32 described above) in blood over time that may be representative of data obtainable by an embodiment of a blood analysis system or apparatus of the present disclosure (e.g., the blood analysis system 20 of FIGS. 1 and 2). For example, and with additional reference to FIGS. 1 and 2, each test cycle includes the object 32 caused to move by the electromagnetic 34 toward the top of the chamber 30 and then allowed to drop; the drop distance of the object 32 is determined or sensed (e.g., an absolute drop distance is determined or sensed once the object 32 is at rest within the blood 40, or is determined or sensed at the end of a predetermined test cycle period). This so-determined drop distance serves as a single data point on the trace 100. The same drop distance test cycle is repeated for the same blood sample 40, at regular or irregular time intervals, over the course of an assessment time period with the result of each successive drop distance test cycle providing an additional data point from which the trace 100 is generated. (i.e., the determined “object drop distance” is plotted relative to the Y-axis at the corresponding point in time over the assessment time period along the X-axis).
As a point of reference, FIG. 4 presents the results of the drop distance cycle tests described above (using a ferromagnetic washer as the object) with three different blood samples. The first blood sample (“FWB”) consisted of fresh whole blood. The second blood sample (“FWB+5 ug/mL Reopro”) consisted of the fresh whole blood of the first sample and the platelet inhibitor Reopro at a concentration of 5 μg/mL. […] As explained in U.S. Pat. No. 8,921,115, clot strength can be another indicator of platelet function, and can be assessed (along with platelet retraction) with some systems and methods of the present disclosure. […]

B1: Reopro: the platelet inhibitor Reopro (antibody, chains of the INN, looked up, V domains shown)
VH: EVQLQQSGTVLARPGASVKMSCEASGYTFTNYWMHWVKQRPGQGLEWIGAIYPGNSDTSYIQKFKGKAKLTAVTSTTSVYMELSSLTNEDSAVYYCTLYDGYYVFAYWGQGTLVTVSA
VL: EIVLTQSPVTLSVTPGDSVSLSCRASRDISNNLHWFQQTSHESPRLLIKYASQSMSGIPSRFSGSGSGTDFTLSINSVETEDFGMYFCQQTNSWPYTFGGGTKLEIK
modifications: Fab
**Q.** How did the “object movement profile, dependence on platelet inhibitor concentration” value (comparison of 5 μg/mL and 10 μg/mL Reopro in fresh whole blood) turn out when B1 was run?
**A.** dose dependent

**Q.** And the “clot retraction (object drop distance over time)” value (fresh whole blood + 5 μg/mL Reopro)?
**A.** first blood sample (with normal platelet function) showed greater clot retraction that the second and third blood samples

**Q.** And the “clot retraction (object drop distance over time)” value (fresh whole blood + 10 μg/mL Reopro)?
**A.** first blood sample (with normal platelet function) showed greater clot retraction that the second and third blood samples
